Data from the nanobody polyreactivity screen of Harvey et al. (2022).

Assay: yeast display, Sf9 membrane polyspecificity reagent, FACS + sequencing; frameworks hold sequencing errors
Procedure, shortened: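 Nanobodies came from a synthetic yeast display library in Saccharomyces cerevisiae BJ5465, induced with galactose for 36–48 hours and stained for 1 hour at 4 °C with 10% biotinylated, detergent-solubilized Sf9 membrane reagent. Cells were enriched on streptavidin microbeads and then FACS-sorted, with low and high (top ~1%) gates set on anti-HA fluorescence for expression and streptavidin fluorescence for reagent binding. Each polyreactivity label reflects the gate a clone came from. Genes were amplified by colony PCR, sequenced by MiSeq 2 × 250 and filtered by CDR length.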

Row | Sequence | polyreactivity (PSR sort gate)
1 | QVQLVESAAGLVQAGGSLRLSCAASGSIFSYYAMGWSRQAPGKERELVAAITGRGGNTYYADSVKGRFTISRDNAKNTVYLQMNSLKPEDTAVDYCAKDYFGWYDVETPYDYWGQGTQVTVSS | low polyreactivity
2 | QVQLVESAAGLVQAGGSLRLSCPASGITFYYYAKGWYRQEPGKESELVAAISGGGDSTYYADSVKGRFTISRDNAKNTVYLQMNSLKPEDTAVYYCAAGQDYWVPDDSLFYYWGQGTQVTVSS | low polyreactivity
3 | QVQLVESAAGLVQAGGSLRLTCDGSGTTFPGYAMGWYRPEPGNERELVAAGGSTYYADSVKGRFTISRDNAKNTVYFQMNCLKPVETAGYYCAASWGSFQKGTYYYWGQGTQVTVSS | low polyreactivity
4 | QVQLVESAAGLVQAVGSLRLSCAPSGITFYDYTMGWYRQAPGKERELVAAITSSGVSTYYADSVKGRFTISRDNAKNTVYLQMNSLKPEDTAVYYCATDAWSVYSYLAFTYDYWGQGTQVTVSS | low polyreactivity
5 | QVQLVESAGALVQAGGRLRLSCAASGRTFRKYAMGWYRQAPGTERELVAAISWSGGSTYYANSVKGRFTISRDNAKNTVYLQMNSLKPEDTAVYYWAAVPVHTGSLYWGFTTGYDYWGQGTQVTVSS | low polyreactivity
6 | QVQLVESAGGIVQAGGSLRLSCAASGFTFTGYAMGWYRQAPGKEREMVAAINARGTSTYYADSVKGRFTISRDNAKNTVYLQMNSLKPEDTAVYYCNREGRSVSGYYYYWGQGTQVTVSS | high polyreactivity
7 | QVQLVESAGGIVQAGGSLRLSCAASGSTFGVYAMGLYRQAPGKERELVASISSGDSTTYADSVKGRFTISRDNAKNTVYFQMNSLKPDVTAVYYCNAVYYTGYYWGHGTQVTVSS | low polyreactivity
8 | QVQLVESAGGLVQAGGRLRLSCAASGFIFYRYAMGWYRQAPGKERELVAAISRNGGSTYYADSVKGRFTISRDNAKNTVYLQRNILKPEDTAVYYCNVDYRLVRIRVDYEYWGQGTQVTVSS | high polyreactivity
9 | QVQLVESAGGLVQAGGRLRLSCAASGFTFRYYAMGWYRQAPGKERELVATITPGGSTNYADSVKGRFTISRDNAKNTVYLEMNSLKPEDTAVYYCAASLYRVIAFGYWGQGTQVTVSS | high polyreactivity
10 | QVQLVESAGGLVQAGGRLRLSCAASGSTFSYYAMGWYRQAPGKEREWVAAISRSGGSTYYADSVKGRFTISRDNAKNTVYLQLNSLKPDDTAVYYCNRYYYTVTREFDYWGQGTQVTVSS | low polyreactivity
11 | QVQLVESAGGLVQAGGSLPLSCAASGSTFASNTMGWYRQAPGKERELVAAITQSGGTTYYADSVKGRFTISRDNAKNTVSLQMNSLKPEDTAVYYCATDVGYFYTVVGGYDYWGTGTQVTVSS | low polyreactivity
12 | QVQLVESAGGLVQAGGSLRLICAASGGTFSTYAIGWYRQAPGKEREFVAAITRSGTSTYYADSVKGRFTISRDNAKNTVYLQMNGLNPEDTAVYYCAAGVYSFRYDYWGQGTQVTVSS | low polyreactivity
13 | QVQLVESAGGLVQAGGSLRLSCAASASTFTNYVMGWYRQAPGKERELVAAITKSGGSTYYADSVKGRYTISRDNAKNTVYLQMNRLKPEDTAVYYCAARRTTEFGYWGQGTQVTVSS | high polyreactivity
14 | QVQLVESAGGLVQAGGSLRLSCAASGFIFGKNAMGLYRQAPGKERELVAVITRSGSRTYYADSVKGRLTISRDNAKNTVYLQMNSLKPEDTAVYYCATDNVYAYDYWGLGTQVTVSS | high polyreactivity
15 | QVQLVESAGGLVQAGGSLRLSCAASGFIFHRYAMGWYRQAPGKERELVAAITGRGSSTYYADSVKGRFTISRDNAKNTVYLQMNSLKPEDTAVYYCNAYRYQVYDTGWFGYWGQGTQVTVSS | high polyreactivity
16 | QVQLVESAGGLVQAGGSLRLSCAASGFIFRNYAMGWYRQEHGKERELVAAISRRGGSTYYADSVKGRFTISRDNAKNTVYLQMNSLKPEDTAVYYCAADYYYSSRIEYYYWGQGTQVTVSS | high polyreactivity
17 | QVQLVESAGGLVQAGGSLRLSCAASGFIFVKYAMGWDRQAPGKERELVAAISSRGGITYYADSVKGRYTISRDNAENTVYLQMISLKPADTAVYYCNTVSRGYRGNYWGQGTQVTVSS | low polyreactivity
18 | QVQLVESAGGLVQAGGSLRLSCAASGFIFVKYVMGWYRQEPGKERELVATISNGVSTNYADSVKGRFTISRDNAKNTVYLQMNSLKPEDTAVYDCNTGSNAWYFSGDYWGQGTQVTVSS | low polyreactivity
19 | QVQLVESAGGLVQAGGSLRLSCAASGFTFGWYAMGWYRQAPGKERELVAAISSTGGRTYYADSVKGRFTISRDNAKNTVYLQMNSLKPEDTAVYYCAAAYSYGTEYGYWGQGTQVTVSS | high polyreactivity
20 | QVQLVESAGGLVQAGGSLRLSCAASGFTFRYYAMGWYRQAPGKERELVAAISWSGGRTYYADSVKWRLTISRDNANNTVYLQMNSLKPEDTADYYCAADGYQYFYGDFDYWGQGTQVTVSS | high polyreactivity
21 | QVQLVESAGGLVQAGGSLRLSCAASGFTFYFYAMGWSRQAPGKERELVAAISRSGSRTYYADSVKGRFTISRDNAKNTVYLQMNSLKPEDTAVYYCARVRPRGLYFVLHYDYWGQGTQVTVSS | high polyreactivity
22 | QVQLVESAGGLVQAGGSLRLSCAASGFTFYYYTMGWYRQAPGKETELVAAITWRGGSTNYADSVKGRFTISRDNAKNTVYLQMNSLKPEDTAVYYCAAVSYWFWPGMDYWGQGTQVTVSS | low polyreactivity

Row | Sequence | polyreactivity (PSR sort gate)
23 | QVQLVESAGGLVQAGGSLRLSCAASGGIFFSYAMGWYRQAPGKERELVAAIRTNGGTTYYADSVKGRFTISRDNAKNNVYLQMNSLTPEDTAVYYCASLPGGYYDRGEYDYWGQGTQVTVSS | low polyreactivity
24 | QVQLVESAGGLVQAGGSLRLSCAASGIIFPVYAMGWYRQAPGKERELVAAITSSGGSTYYADSVKGRFTISRDNAKNTVYLQMNSLKPEDTAVYYFAAVRKSRFDYGGQGTQVTVSS | high polyreactivity
25 | QVQLVESAGGLVQAGGSLRLSCAASGIIFTSNTMGWYRQAPGKEREFVASINWNGSSTYADSVKGRFTISRDNAKNTVYLQMNSLKPEDTAVYYCAADWLGYQYGYWGQGTQVTVSS | low polyreactivity
26 | QVQLVESAGGLVQAGGSLRLSCAASGLIFRFNAMGWYRQAPGKERELVAAITRAGSTYYADSVKGRFTISRDNAKKTVYLQMNSLKPEDTAVYYCAAGQYRLPQRGYGYWGQGTQVTVSS | high polyreactivity
27 | QVQLVESAGGLVQAGGSLRLSCAASGLTFPPNAMGWYRHAPGKERELVADSGGSTNYADSVKGRFTISRDNAKNTVYLQMNSLKPEDTAVYYCAAPPYSDGQWDDYWGQGSQVTVSS | low polyreactivity
28 | QVQLVESAGGLVQAGGSLRLSCAASGNTFPPYPMGWYRQAPGKERELVAAISCGGRTYYADSVKGRFTISRDNAKNTVYLQMNSLKPEDTAVYYCAVYVPNYYSYHYDYWGQGTQVTVSS | high polyreactivity
29 | QVQLVESAGGLVQAGGSLRLSCAASGRIFARYAMGWYRQAPGKVRELVAAISASGGSTYYADSVKGRFTISRDNAKYTVYLQMNSLKPEDTAVYYCAARFSYPYRIAFNYWGQGTQVTVSS | low polyreactivity
30 | QVQLVESAGGLVQAGGSLRLSCAASGRIFGYYAMGWYRQAPGKERELVARISRGGSTYYADSVKGRFTISRDNAMNTVYLQMTSLKPEDTGVYYCAATRSGYTSYTDDSWGQGTQVTVSS | high polyreactivity
31 | QVQLVESAGGLVQAGGSLRLSCAASGRIFHKNAMGWYRQAPGKERELVATINYGGSSTYYADSVKGRFTISRDNAKNTVYLQMNSLKPEDTAVYYCAAAPEYLTDHAYWGQGTQVTVSS | low polyreactivity
32 | QVQLVESAGGLVQAGGSLRLSCAASGRIFSHYAMGWYRQAPGKERELVAAITSSGGSTSYADSVKGRFTISRDNAKNTVYLQMNSLKPEDTAVYYCAAEDTQVRRSPVRPLEDYWGQGTQVTVSS | low polyreactivity
33 | QVQLVESAGGLVQAGGSLRLSCAASGRIFYGNAMGWYRQAPGKERELVAAISKRGGSTHYAASVKGRFTISRDNAKNTVYLQMNSLKPEDTAVYYCATDSYYVGAVHYYYWGQGTQVTVSS | high polyreactivity
34 | QVQLVESAGGLVQAGGSLRLSCAASGRIFYLYAMGWYRQAPGQERELVARITSGSGTYYADSVKGRFTISRDNAKNTVYLQMNSLKPEDTGVYYCAAREPGVCFVGHYTGLDYWGQGTQVTVSS | low polyreactivity
35 | QVQLVESAGGLVQAGGSLRLSCAASGRIFYYAMGWYRQAPGKEREFVAAISGSGGSTNYADSVKGRFTISRDNAKNTVYLQMNSLKPEDTAVYYCNAESWSWGFIYEYEYWGQGTQVTVSS | high polyreactivity
36 | QVQLVESAGGLVQAGGSLRLSCAASGRTFQYYALGWYRQAPGKERELVAAISWSGGSTYYADSVTGRFTISRDNAKNTVYLLMNSLKPEDSAVYYCAKTSSGRKFYWGQGTQVTVSS | high polyreactivity
37 | QVQLVESAGGLVQAGGSLRLSCAASGRTFYPYAMGWYRQAPGKARELVAAIRSSGGTTYYADSVKGRFTISRDNAKNTVYVQMNSLKPEDTAVYYCAAFVDRQGGYYWGQGTQVTVSS | high polyreactivity
38 | QVQLVESAGGLVQAGGSLRLSCAASGSIFPLYAMGWYRQAPGKERELVAAISYSGGRTYYADSVKGRFTISRDNAKNTVYLQMNSLKPEDTAVYYCNTRQRVIDDYWGQGTQVTVSS | high polyreactivity
39 | QVQLVESAGGLVQAGGSLRLSCAASGSIFRAYSMGWYRQAPGKERELVAAISWGGGSTSYADSVKGRFTISRDNAKNTVYLQMNSLQPEDTAVYYCNKVSFSKRRDYYWGQGTQVTVSS | high polyreactivity
40 | QVQLVESAGGLVQAGGSLRLSCAASGSIFYEYAMGWYRQAPGKERELVATITWTDDSTYYADSVKGRFTISRDNAKNTVYLQMNSLKPEDTAVYYCNADLWPGNHDGYWGQGTQVTVSS | low polyreactivity
41 | QVQLVESAGGLVQAGGSLRLSCAASGSIFYRYVMGWYRQAPGKERELVAAITSDGSTNYADSVKGRFTISRDNAKNTVYLQMNSLKPEDSAVYYCNARSYRGRFDYWGLGTQVTVSS | low polyreactivity
42 | QVQLVESAGGLVQAGGSLRLSCAASGSIFYTYAMGWYRQAPGKERELVAAISGSGTSTYYADSVKGRFTISRDNAKNTVYLQMNSLKPEDTAVYYCATDGGAAWGRYYWDYGYWGQGTQVTVSS | low polyreactivity
43 | QVQLVESAGGLVQAGGSLRLSCAASGSNFAIYDMGWYRQAPGKEREFVADISIVGRKKYADSVKGRFTISRDNAKNTVYLQMNSLKPEDTAVYYCTDQDSRDRKFYWGYTRGHWGQGTQVTVSS | low polyreactivity
